Results published in article PMC6856053 (Frontiers in Neuroscience, 2019).
Residue numbers refer to the chain shown, from its start.

Experiments:
Assay in all cases: pull-down; GST-MIT domain (bait) and myc-6His MIM (prey), 2 nmole each, on 20 ul glutathione sepharose in 1 ml PBS + 0.1% NP-40 + 1 mM DTT, overnight 4 C; Coomassie and anti-myc blot
Conditions in all cases: both partners purified
[1] = target: T1, GST fused to the spastin MIT domain (residues 110-199) E112K (human, UniProt Q9UBP0 110-199, E112K)
T1 construct: spastin, residues 110-199 holding the MIT domain; patient mutation; Cloned into the BamHI-XhoI sites of pGEX-4T2; source: E. coli BL21(DE3)pLysS, purified (GST sepharose, eluted with 10 mM glutathione)
T1 sequence (looked up): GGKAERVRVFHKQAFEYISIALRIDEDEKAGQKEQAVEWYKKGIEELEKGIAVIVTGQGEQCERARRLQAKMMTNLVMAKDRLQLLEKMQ

[2] = target: T2, GST fused to the spastin MIT domain (residues 110-199) V162I (human, UniProt Q9UBP0 110-199, V162I)
T2 construct: spastin, residues 110-199 holding the MIT domain; benign polymorphism; Cloned into the BamHI-XhoI sites of pGEX-4T2; also called MIT containing the benign polymorphism V162I; source: E. coli BL21(DE3)pLysS, purified (GST sepharose, eluted with 10 mM glutathione)
T2 sequence (looked up): T1 sequence (looked up) with K3E, V53I

[3] = target: T3, GST fused to the spastin MIT domain (residues 110-199) R115C (human, UniProt Q9UBP0 110-199, R115C)
T3 construct: spastin, residues 110-199 holding the MIT domain; patient mutation (SPAST c.343C>T); Cloned into the BamHI-XhoI sites of pGEX-4T2; source: E. coli BL21(DE3)pLysS, purified (GST sepharose, eluted with 10 mM glutathione)
T3 sequence (looked up): T1 sequence (looked up) with K3E, R6C

[4] = target: T4, GST fused to the spastin MIT domain (residues 110-199) L195V (human, UniProt Q9UBP0 110-199, L195V)
T4 construct: spastin, residues 110-199 holding the MIT domain; patient mutation; Cloned into the BamHI-XhoI sites of pGEX-4T2; source: E. coli BL21(DE3)pLysS, purified (GST sepharose, eluted with 10 mM glutathione)
T4 sequence (looked up): T1 sequence (looked up) with K3E, L86V

[5] = target: T5, GST fused to the spastin MIT domain (residues 110-199) N184T (human, UniProt Q9UBP0 110-199, N184T)
T5 construct: spastin, residues 110-199 holding the MIT domain; patient mutation; Cloned into the BamHI-XhoI sites of pGEX-4T2; source: E. coli BL21(DE3)pLysS, purified (GST sepharose, eluted with 10 mM glutathione)
T5 sequence (looked up): T1 sequence (looked up) with K3E, N75T

[6] = target: T6, GST fused to the wild-type spastin MIT domain (residues 110-199) (human, UniProt Q9UBP0 110-199)
T6 construct: spastin, residues 110-199 holding the MIT domain; Cloned into the BamHI-XhoI sites of pGEX-4T2; also called WT; source: E. coli BL21(DE3)pLysS, purified (GST sepharose, eluted with 10 mM glutathione)
T6 sequence (looked up): T1 sequence (looked up) with K3E

Measured: binding result

B1: single MIM of CHMP1B, residues 174-199, myc- and 6His-tagged (domain or fragment, UniProt Q7LBR1 174-199, looked up)
chain: GSVGTSVASAEQDELSQRLARLRDQV
notes: CHMP1B, residues 174-199 holding the single MIM; Cloned into the BamHI-NotI sites of pGEX-6P-1; also called CHMP1B MIM; CHMP1B (amino acids 174-199); source: E. coli BL21(DE3)pLysS, purified (GST sepharose, GST removed with Prescission protease)
binds: [1] | [2] | [3] | [4] | [5] | [6]
